± gives the standard deviation of the averaged measurements.
Legend:
MCF7 = assay: percentage of EdU-negative (G0-arrested) nuclei per well, 72 h; higher = more G0 arrest; conditions: reference: sequence is the full UniProt precursor, the tested protein was the secreted form or ectodomain
hTERT-HMEC = assay: as above; conditions: reference: sequence is the full UniProt precursor, the tested protein was the secreted form or ectodomain
[1] = protein concentration 0.0225 µM
[2] = protein concentration 0.0240725 µM
[3] = protein concentration 0.240725 µM
[4] = protein concentration 0.03125 µM
[5] = protein concentration 0.3125 µM
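Further: secreted proteins added to cultured cells, EdU pulse at the end, nuclei found by Hoechst imaging, EdU status from nuclear versus surrounding ring intensity ratio, PBS as neutral control.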

Sequence	percentage of EdU-negative (MCF7; [1]) [%]	percentage of EdU-negative (MCF7; protein concentration 0.225 µM) [%]	percentage of EdU-negative (hTERT-HMEC; [1]) [%]	percentage of EdU-negative (hTERT-HMEC; protein concentration 0.225 µM) [%]	other results
MKMWLLVSHLVIISITTCLAEFTWYRRYGHGVSEEDKGFGPIFEEQPINTIYPEESLEGKVSLNCRARASPFPVYKWRMNNGDVDLTSDRYSMVGGNLVINNPDKQKDAGIYYCLASNNYGMVRSTEATLSFGYLDPFPPEERPEVRVKEGKGMVLLCDPPYHFPDDLSYRWLLNEFPVFITMDKRRFVSQTNGNLYIANVEASDKGNYSCFVSSPSITKSVFSKFIPLIPIPERTTKPYPADIVVQFKDVYALMGQNVTLECFALGNPVPDIRWRKVLEPMPSTAEISTSGAVLKIFNIQLEDEGIYECEAENIRGKDKHQARIYVQAFPEWVEHINDTEVDIGSDLYWPCVATGKPIPTIRWLKNGYAYHKGELRLYDVTFENAGMYQCIAENTYGAIYANAELKILALAPTFEMNPMKKKILAAKGGRVIIECKPKAAPKPKFSWSKGTEWLVNSSRILIWEDGSLEINNITRNDGGIYTCFAENNRGKANSTGTLVITDPTRIILAPINADITVGENATMQCAASFDPALDLTFVWSFNGYVIDFNKENIHYQRNFMLDSNGELLIRNAQLKHAGRYTCTAQTIVDNSSASADLVVRGPPGPPGGLRIEDIRATSVALTWSRGSDNHSPISKYTIQTKTILSDDWKDAKTDPPIIEGNMEAARAVDLIPWMEYEFRVVATNTLGRGEPSIPSNRIKTDGAAPNVAPSDVGGGGGRNRELTITWAPLSREYHYGNNFGYIVAFKPFDGEEWKKVTVTNPDTGRYVHKDETMSPSTAFQVKVKAFNNKGDGPYSLVAVINSAQDAPSEAPTEVGVKVLSSSEISVHWEHVLEKIVESYQIRYWAAHDKEEAANRVQVTSQEYSARLENLLPDTQYFIEVGACNSAGCGPPSDMIEAFTKKAPPSQPPRIISSVRSGSRYIITWDHVVALSNESTVTGYKVLYRPDGQHDGKLYSTHKHSIEVPIPRDGEYVVEVRAHSDGGDGVVSQVKISGAPTLSPSLLGLLLPAFGILVYLEF	24.5 ± 1.2	26.2 ± 0.55	5.11 ± 0.28	5.87 ± 0.46	
MGAGATGRAMDGPRLLLLLLLGVSLGGAKEACPTGLYTHSGECCKACNLGEGVAQPCGANQTVCEPCLDSVTFSDVVSATEPCKPCTECVGLQSMSAPCVEADDAVCRCAYGYYQDETTGRCEACRVCEAGSGLVFSCQDKQNTVCEECPDGTYSDEANHVDPCLPCTVCEDTERQLRECTRWADAECEEIPGRWITRSTPPEGSDSTAPSTQEPEAPPEQDLIASTVAGVVTTVMGSSQPVVTRGTTDNLIPVYCSILAAVVVGLVAYIAFKRWNSCKQNKQGANSRPVNQTPPPEGEKLHSDSGISVDSQSLHDQQPHTQTASGQALKGDGGLYSSLPPAKREEVEKLLNGSAGDTWRHLAGELGYQPEHIDSFTHEACPVRALLASWATQDSATLDALLAALRRIQRADLVESLCSESTATSPV					percentage of EdU-negative (MCF7; [2]): 24.6 ± 0.37%; percentage of EdU-negative (MCF7; [3]): 23 ± 1.5%; percentage of EdU-negative (hTERT-HMEC; [2]): 4.77 ± 0.43%; percentage of EdU-negative (hTERT-HMEC; [3]): 4.6 ± 0.64%
MDRAARCSGASSLPLLLALALGLVILHCVVADGNSTRSPETNGLLCGDPEENCAATTTQSKRKGHFSRCPKQYKHYCIKGRCRFVVAEQTPSCVCDEGYIGARCERVDLFYLRGDRGQILVICLIAVMVVFIILVIGVCTCCHPLRKRRKRKKKEEEMETLGKDITPINEDIEETNIA					percentage of EdU-negative (MCF7; [4]): 24.5 ± 1.2%; percentage of EdU-negative (MCF7; [5]): 23.3 ± 0.42%; percentage of EdU-negative (hTERT-HMEC; [4]): 5.5 ± 0.31%; percentage of EdU-negative (hTERT-HMEC; [5]): 5.88 ± 0.75%
MLRGISQLPAVATMSWVLLPVLWLIVQTQAIAIKQTPELTLHEIVCPKKLHILHKREIKNNQTEKHGKEERYEPEVQYQMILNGEEIILSLQKTKHLLGPDYTETLYSPRGEEITTKPENMEHCYYKGNILNEKNSVASISTCDGLRGYFTHHHQRYQIKPLKSTDEKEHAVFTSNQEEQDPANHTCGVKSTDGKQGPIRISRSLKSPEKEDFLRAQKYIDLYLVLDNAFYKNYNENLTLIRSFVFDVMNLLNVIYNTIDVQVALVGMEIWSDGDKIKVVPSASTTFDNFLRWHSSNLGKKIHDHAQLLSGISFNNRRVGLAASNSLCSPSSVAVIEAKKKNNVALVGVMSHELGHVLGMPDVPFNTKCPSGSCVMNQYLSSKFPKDFSTSCRAHFERYLLSQKPKCLLQAPIPTNIMTTPVCGNHLLEVGEDCDCGSPKECTNLCCEALTCKLKPGTDCGGDAPNHTTE	25.9 ± 0.54	27.7 ± 1.7	4.82 ± 0.43	12.07 ± 0.12	
MPPSGPRGTLLLLPLLLLLLLRAVLAVPLERGAPNKEETPATESPDTGLYYHRYLQEVIDVLETDGHFREKLQAANAEDIKSGKLSRELDFVSHHVRTKLDELKRQEVSRLRMLLKAKMDAEQDPNVQVDHLNLLKQFEHLDPQNQHTFEARDLELLIQTATRDLAQYDAAHHEEFKRYEMLKEHERRRYLESLGEEQRKEAERKLEEQQRRHREHPKVNVPGSQAQLKEVWEELDGLDPNRFNPKTFFILHDINSDGVLDEQELEALFTKELEKVYDPKNEEDDMREMEEERLRMREHVMKNVDTNQDRLVTLEEFLASTQRKEFGDTGEGWETVEMHPAYTEEELRRFEEELAAREAELNAKAQRLSQETEALGRSQGRLEAQKRELQQAVLHMEQRKQQQQQQQGHKAPAAHPEGQLKFHPDTDDVPVPAPAGDQKEVDTSEKKLLERLPEVEVPQHL					percentage of EdU-negative (MCF7; [4]): 24.1 ± 0.73%; percentage of EdU-negative (MCF7; [5]): 26.9 ± 1.6%; percentage of EdU-negative (hTERT-HMEC; [4]): 4.94 ± 0.37%; percentage of EdU-negative (hTERT-HMEC; [5]): 7.16 ± 0.53%
MEALPLLAATTPDHGRHRRLLLLPLLLFLLPAGAVQGWETEERPRTREEECHFYAGGQVYPGEASRVSVADHSLHLSKAKISKPAPYWEGTAVIDGEFKELKLTDYRGKYLVFFFYPLDFTFVCPTEIIAFGDRLEEFRSINTEVVACSVDSQFTHLAWINTPRRQGGLGPIRIPLLSDLTHQISKDYGVYLEDSGHTLRGLFIIDDKGILRQITLNDLPVGRSVDETLRLVQAFQYTDKHGEVCPAGWKPGSETIIPDPAGKLKYFDKLN	26.1 ± 1.3	27.8 ± 0.15	5.57 ± 1.3	4.84 ± 0.26	
MEKILILLLVALSVAYAAPGPRGIIINLENGELCMNSAQCKSNCCQHSSALGLARCTSMASENSECSVKTLYGIYYKCPCERGLTCEGDKTIVGSITNTNFGICHDAGRSKQ	23.9 ± 2.4	28.37 ± 0.035	5.19 ± 0.81	6.85 ± 1.2	

Reference: the supplement of paper PMC11316812
